# Laboratory results taken from patent US20130209454A1.
# Numbering of substitutions follows the chain as printed. Names and notes keep the numbering of the source.
# B1: NIH45-46^G54W(HC), S28Y(LC) (antibody, V domains shown)
# VH: QVRLSQSGGQMKKPGESMRLSCRASGYEFLNCPINWIRLAPGRRPEWMGWLKPRWGAVNYARKFQGRVTMTRDVYSDTAFLELRSLTSDDTAVYFCTRGKYCTARDYYNWDFEHWGRGAPVTVSS
# VL: EIVLTQSPATLSLSPGETAIISCRTSQYGSLAWYQQRPGQAPRLVIYSGSTRAAGIPDRFSGSRWGADYNLSISNLESGDFGVYYCQQYEFFGQGTKVQVDI
# B2: NIH45-46^G54W (antibody, V domains shown)
# VH: B1 VH
# VL: B1 VL with Y28S
# B3: NIH45-46^G54F IgG (antibody, name in Kabat numbering, V domains shown)
# VH: B1 VH with W55F
# VL: B1 VL with Y28S
# Experiments:
# Test in all cases: cell-based or functional assay
# [1] = molecular target: HIV-1 Env of strain Ce703010054_2A2 (HIV-1)
# [2] = molecular target: HIV-1 Env of strain THRO4156.18 (HIV-1)
# [3] = molecular target: HIV-1 Env of strain 89-F1_2_25 (HIV-1)
# [4] = molecular target: HIV-1 Env of strain 3103.v3.c10 (HIV-1)
# [5] = molecular target: HIV-1 Env of strain Ce0393_C3 (HIV-1)
# [6] = molecular target: HIV-1 Env of strain 620345.c01 (HIV-1)
# [7] = molecular target: HIV-1 Env of strain X2131_C1_B5 (HIV-1)
# [8] = molecular target: HIV-1 Env of strain R1166.c01 (HIV-1)
# [9] = molecular target: HIV-1 Env of strain P1981_C5_3 (HIV-1)
# [10] = molecular target: HIV-1 Env of strain X1193_c1 (HIV-1)
# [11] = molecular target: HIV-1 Env of strain AC10.0.29 (HIV-1)
# [12] = molecular target: HIV-1 Env of strain 231965.c01 (HIV-1)
# [13] = molecular target: HIV-1 Env of strain CAP45.2.00.G3 (HIV-1)
# [14] = molecular target: HIV-1 Env of strain CNE21 (HIV-1)
# [15] = molecular target: HIV-1 Env of strain CNE17 (HIV-1)
# [16] = molecular target: HIV-1 Env of strain T250-4 (HIV-1)
# [17] = molecular target: HIV-1 Env of strain QH0692.42 (HIV-1)
# [18] = molecular target: HIV-1 Env of strain 231966.c02 (HIV-1)
# [19] = molecular target: HIV-1 Env of strain Du422.1 (HIV-1)
# [20] = molecular target: HIV-1 Env of strain Q23.17 (HIV-1)
# [21] = molecular target: HIV-1 Env of strain CNE53 (HIV-1)
# [22] = molecular target: HIV-1 Env of strain 3301.v1.c24 (HIV-1)
# [23] = molecular target: HIV-1 Env of strain R2184.c04 (HIV-1)
# [24] = molecular target: HIV-1 Env of strain TROJO4551.58 (HIV-1)
# [25] = molecular target: HIV-1 strain TRJO4551.58 envelope (gp120) (HIV-1)
# [26] = molecular target: HIV-1 strain 0815.v3.c3 envelope (gp120) (HIV-1)
# [27] = molecular target: HIV-1 strain 6811.v7.c18 envelope (gp120) (HIV-1)
# [28] = molecular target: HIV-1 strain 3301.v1.c24 envelope (gp120) (HIV-1)
# [29] = molecular target: HIV-1 strain T257-31 envelope (gp120) (HIV-1)
# [30] = molecular target: HIV-1 strain 0330.v4.c3 envelope (gp120) (HIV-1)
# [31] = molecular target: HIV-1 strain C3347.c11 envelope (gp120) (HIV-1)
# [32] = molecular target: HIV-1 Env of strain 6540.v4.cl (HIV-1)
# [33] = molecular target: HIV-1 strain 231965.c01 envelope (gp120) (HIV-1)
# [34] = molecular target: HIV-1 strain 62357_14_D3_4589 envelope (gp120) (HIV-1)
# [35] = molecular target: HIV-1 strain 3718.v3.c11 envelope (gp120) (HIV-1)
# [36] = molecular target: HIV-1 strain 6480.v4.c25 envelope (gp120) (HIV-1)
# [37] = molecular target: HIV-1 strain 620345.c01 envelope (gp120) (HIV-1)
# [38] = molecular target: HIV-1 strain Q259.d2.17 envelope (gp120) (HIV-1)
# [39] = molecular target: HIV-1 strain 928-28 envelope (gp120) (HIV-1)
# [40] = molecular target: HIV-1 strain 89-F1_2_25 envelope (gp120) (HIV-1)
# [41] = molecular target: HIV-1 strain 1056_10_TA11_1826 envelope (gp120) (HIV-1)
# [42] = molecular target: HIV-1 strain 6545.v4.c1 envelope (gp120) (HIV-1)
# [43] = molecular target: HIV-1 strain 6535.3 envelope (gp120) (HIV-1)
# [44] = molecular target: HIV-1 strain Q23.17 envelope (gp120) (HIV-1)
# [45] = molecular target: HIV-1 strain THRO4156.18 envelope (gp120) (HIV-1)
# [46] = molecular target: HIV-1 strain R2184.04 envelope (gp120) (HIV-1)
# [47] = molecular target: HIV-1 strain CNE17 envelope (gp120) (HIV-1)
# [48] = molecular target: HIV-1 strain ZM247v1(Rev-) envelope (gp120) (HIV-1)
# [49] = molecular target: HIV-1 strain TRO.11 envelope (gp120) (HIV-1)
# [50] = molecular target: HIV-1 Env of strain 0330.v4.c3 (HIV-1)
binder,measurement,setting,value
B1,"IC50, pseudovirus neutralization",[1],0.016 µg/mL
same,"IC50, pseudovirus neutralization",[2],0.685 µg/mL
same,"IC50, pseudovirus neutralization",[3],> 50 µg/mL
same,"IC50, pseudovirus neutralization",[4],0.181 µg/mL
same,"IC50, pseudovirus neutralization",[5],0.046 µg/mL
same,"IC50, pseudovirus neutralization",[6],> 50 µg/mL
same,"IC50, pseudovirus neutralization",[7],0.031 µg/mL
same,"IC50, pseudovirus neutralization",[8],0.278 µg/mL
same,"IC50, pseudovirus neutralization",[9],0.012 µg/mL
same,"IC50, pseudovirus neutralization",[10],0.008 µg/mL
same,"IC50, pseudovirus neutralization",[11],0.118 µg/mL
same,"IC50, pseudovirus neutralization",[12],0.001 µg/mL
same,"IC50, pseudovirus neutralization",[13],0.02 µg/mL
same,"IC50, pseudovirus neutralization",[14],0.001 µg/mL
same,"IC50, pseudovirus neutralization",[15],0.064 µg/mL
same,"IC50, pseudovirus neutralization",[16],1.55 µg/mL
same,"IC50, pseudovirus neutralization",[17],0.216 µg/mL
same,"IC50, pseudovirus neutralization",[18],0.012 µg/mL
same,"IC50, pseudovirus neutralization",[19],8.47 µg/mL
same,"IC50, pseudovirus neutralization",[20],0.015 µg/mL
same,"IC50, pseudovirus neutralization",[21],0.006 µg/mL
same,"IC50, pseudovirus neutralization",[22],0.001 µg/mL
same,"IC50, pseudovirus neutralization",[23],0.008 µg/mL
B2,"IC50, pseudovirus neutralization",[1],0.027 µg/mL
same,"IC50, pseudovirus neutralization",[2],0.54 µg/mL
same,"IC50, pseudovirus neutralization",[3],> 50 µg/mL
same,"IC50, pseudovirus neutralization",[4],0.2 µg/mL
same,"IC50, pseudovirus neutralization",[5],0.013 µg/mL
same,"IC50, pseudovirus neutralization",[6],> 50 µg/mL
same,"IC50, pseudovirus neutralization",[7],0.05 µg/mL
same,"IC50, pseudovirus neutralization",[8],0.13 µg/mL
same,"IC50, pseudovirus neutralization",[9],0.02 µg/mL
same,"IC50, pseudovirus neutralization",[10],0.001 µg/mL
same,"IC50, pseudovirus neutralization",[11],0.13 µg/mL
same,"IC50, pseudovirus neutralization",[12],0.001 µg/mL
same,"IC50, pseudovirus neutralization",[13],32.2 µg/mL
same,"IC50, pseudovirus neutralization",[14],0.03 µg/mL
same,"IC50, pseudovirus neutralization",[15],0.036 µg/mL
same,"IC50, pseudovirus neutralization",[16],1.33 µg/mL
same,"IC50, pseudovirus neutralization",[17],0.37 µg/mL
same,"IC50, pseudovirus neutralization",[18],0.02 µg/mL
same,"IC50, pseudovirus neutralization",[19],> 50 µg/mL
same,"IC50, pseudovirus neutralization",[20],0.01 µg/mL
same,"IC50, pseudovirus neutralization",[21],0.001 µg/mL
same,"IC50, pseudovirus neutralization",[22],0.001 µg/mL
same,"IC50, pseudovirus neutralization",[23],0.005 µg/mL
B3,neutralization IC50,[1],0.02 µg/mL
same,neutralization IC50,[24],0.03 µg/mL
same,neutralization IC80,[25],0.08 µg/mL
same,neutralization IC80,[26],0.014 µg/mL
same,neutralization IC80,[27],0.063 µg/mL
same,neutralization IC50,[2],0.89 µg/mL
same,neutralization IC80,[28],0.011 µg/mL
same,neutralization IC80,[29],0.51 µg/mL
same,neutralization IC80,[30],0.13 µg/mL
same,neutralization IC50,[3],> 50 µg/mL
same,neutralization IC80,[31],0.059 µg/mL
same,neutralization IC50,[32],> 50 µg/mL
same,neutralization IC50,[4],0.37 µg/mL
same,neutralization IC50,[5],0.04 µg/mL
same,neutralization IC80,[33],0.062 µg/mL
same,neutralization IC80,[34],0.14 µg/mL
same,neutralization IC50,[6],> 50 µg/mL
same,neutralization IC80,[35],4.62 µg/mL
same,neutralization IC80,[36],0.046 µg/mL
same,neutralization IC50,[7],0.1 µg/mL
same,neutralization IC50,[8],0.4 µg/mL
same,neutralization IC80,[37],> 50 µg/mL
same,neutralization IC80,[38],0.036 µg/mL
same,neutralization IC80,[39],0.41 µg/mL
same,neutralization IC80,[40],> 50 µg/mL
same,neutralization IC80,[41],0.283 µg/mL
same,neutralization IC50,[9],0.03 µg/mL
same,neutralization IC80,[42],> 50 µg/mL
same,neutralization IC50,[10],< 0.001 µg/mL
same,neutralization IC80,[43],0.27 µg/mL
same,neutralization IC50,[11],0.24 µg/mL
same,neutralization IC50,[12],0.022 µg/mL
same,neutralization IC50,[14],0.12 µg/mL
same,neutralization IC50,[15],0.075 µg/mL
same,neutralization IC50,[16],> 50 µg/mL
same,neutralization IC50,[17],0.56 µg/mL
same,neutralization IC80,[44],0.07 µg/mL
same,neutralization IC80,[45],3.01 µg/mL
same,neutralization IC80,[46],0.054 µg/mL
same,neutralization IC80,[47],0.287 µg/mL
same,neutralization IC50,[18],0.06 µg/mL
same,neutralization IC80,[48],2.45 µg/mL
same,neutralization IC50,[19],> 50 µg/mL
same,neutralization IC80,[49],0.3 µg/mL
same,neutralization IC50,[50],0.04 µg/mL
same,neutralization IC50,[20],0.03 µg/mL
same,neutralization IC50,[21],0.005 µg/mL
same,neutralization IC50,[22],0.001 µg/mL
same,neutralization IC50,[23],0.015 µg/mL
